From paper doi:10.1101/2022.07.28.501818 come the findings set out here.

This experiment addresses fibronectin (FN) from human plasma (human) (UniProt P02751).
Sequence of UniProt P02751 (P02751 32-2477): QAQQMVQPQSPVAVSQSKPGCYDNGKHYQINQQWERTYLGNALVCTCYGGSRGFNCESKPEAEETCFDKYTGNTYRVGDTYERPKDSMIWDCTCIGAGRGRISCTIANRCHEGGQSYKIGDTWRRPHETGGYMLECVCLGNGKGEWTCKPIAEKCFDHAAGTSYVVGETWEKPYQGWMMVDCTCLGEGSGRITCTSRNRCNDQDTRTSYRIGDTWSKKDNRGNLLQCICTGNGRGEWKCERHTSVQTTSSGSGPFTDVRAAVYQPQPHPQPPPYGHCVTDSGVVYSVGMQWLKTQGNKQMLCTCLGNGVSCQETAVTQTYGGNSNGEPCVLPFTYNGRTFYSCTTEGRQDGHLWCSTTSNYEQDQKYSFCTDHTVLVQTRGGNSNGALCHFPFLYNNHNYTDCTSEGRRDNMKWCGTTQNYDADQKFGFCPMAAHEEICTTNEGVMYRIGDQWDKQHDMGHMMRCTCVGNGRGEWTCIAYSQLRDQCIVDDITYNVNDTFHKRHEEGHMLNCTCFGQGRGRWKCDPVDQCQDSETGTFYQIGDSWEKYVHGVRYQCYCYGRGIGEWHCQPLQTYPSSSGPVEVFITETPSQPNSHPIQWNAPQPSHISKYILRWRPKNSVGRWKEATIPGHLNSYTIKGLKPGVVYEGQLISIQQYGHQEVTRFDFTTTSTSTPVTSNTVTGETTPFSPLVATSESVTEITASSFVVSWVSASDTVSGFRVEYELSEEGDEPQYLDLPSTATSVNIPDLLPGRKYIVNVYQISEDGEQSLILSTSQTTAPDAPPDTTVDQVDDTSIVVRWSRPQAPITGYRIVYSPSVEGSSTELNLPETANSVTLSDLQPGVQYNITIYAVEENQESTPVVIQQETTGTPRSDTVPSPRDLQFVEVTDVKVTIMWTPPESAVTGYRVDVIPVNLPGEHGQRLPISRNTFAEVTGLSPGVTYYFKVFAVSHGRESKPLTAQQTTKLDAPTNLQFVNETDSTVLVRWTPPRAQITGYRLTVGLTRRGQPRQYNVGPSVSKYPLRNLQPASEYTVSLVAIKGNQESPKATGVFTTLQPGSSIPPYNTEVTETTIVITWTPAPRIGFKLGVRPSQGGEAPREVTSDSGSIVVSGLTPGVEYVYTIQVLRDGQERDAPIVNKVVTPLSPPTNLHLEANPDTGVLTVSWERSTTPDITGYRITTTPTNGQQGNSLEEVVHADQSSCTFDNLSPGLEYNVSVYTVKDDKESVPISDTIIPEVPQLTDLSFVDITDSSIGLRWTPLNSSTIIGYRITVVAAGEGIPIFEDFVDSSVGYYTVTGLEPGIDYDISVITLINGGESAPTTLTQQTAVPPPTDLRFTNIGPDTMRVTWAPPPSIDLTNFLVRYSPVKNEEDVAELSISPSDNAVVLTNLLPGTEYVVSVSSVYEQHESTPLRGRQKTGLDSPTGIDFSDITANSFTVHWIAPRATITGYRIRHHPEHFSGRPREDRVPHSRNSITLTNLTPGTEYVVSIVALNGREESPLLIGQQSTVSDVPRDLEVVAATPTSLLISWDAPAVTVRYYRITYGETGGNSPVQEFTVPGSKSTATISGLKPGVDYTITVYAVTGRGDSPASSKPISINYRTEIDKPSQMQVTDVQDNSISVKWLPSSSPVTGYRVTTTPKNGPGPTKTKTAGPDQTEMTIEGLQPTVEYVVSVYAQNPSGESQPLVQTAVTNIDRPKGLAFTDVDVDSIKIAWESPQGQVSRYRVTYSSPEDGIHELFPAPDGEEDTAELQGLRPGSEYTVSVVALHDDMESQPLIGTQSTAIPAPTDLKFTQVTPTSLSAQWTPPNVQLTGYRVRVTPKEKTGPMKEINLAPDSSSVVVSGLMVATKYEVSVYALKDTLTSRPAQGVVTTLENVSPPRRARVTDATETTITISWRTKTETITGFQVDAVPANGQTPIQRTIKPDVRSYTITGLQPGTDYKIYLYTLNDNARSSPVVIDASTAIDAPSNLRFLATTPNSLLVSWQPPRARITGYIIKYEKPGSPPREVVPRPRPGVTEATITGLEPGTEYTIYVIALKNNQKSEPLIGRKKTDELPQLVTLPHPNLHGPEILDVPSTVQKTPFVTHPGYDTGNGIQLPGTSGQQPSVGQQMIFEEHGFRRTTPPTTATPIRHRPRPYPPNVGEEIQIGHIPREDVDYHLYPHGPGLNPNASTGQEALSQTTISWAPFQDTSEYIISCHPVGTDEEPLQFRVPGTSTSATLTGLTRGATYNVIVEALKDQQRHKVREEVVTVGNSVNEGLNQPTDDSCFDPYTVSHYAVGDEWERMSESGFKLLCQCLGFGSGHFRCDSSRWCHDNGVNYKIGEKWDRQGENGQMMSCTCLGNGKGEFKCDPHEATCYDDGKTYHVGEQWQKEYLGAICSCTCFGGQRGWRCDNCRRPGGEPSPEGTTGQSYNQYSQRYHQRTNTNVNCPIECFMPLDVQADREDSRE

B1: BMP-2 (bone morphogenetic protein 2) (ligand)
chain: QAKHKQRKRLKSSCKRHPLYVDFSDVGWNDWIVAPPGYHAFYCHGECPFPLADHLNSTNHAIVQTLVNSVNSKIPKACCVPTELSAISMLYLDENEKVVLKNYQDMVVEGCGCR
Regarding B1, the surface density of BMP-2 on PEA-FN was 8 ng/cm2.
